These results are taken from US11813311B2, “Treatment and prevention of metabolic diseases” (Singapore Health Services PTE LTD., priority 2019, dated 2023).

Data set [1] can be described thus: Blood pharmacokinetics and biodistribution of 125I-X209. The data set is classed as in vivo, mouse. The method, then: C57BL/6J mice (10-12-weeks old) were retro-orbitally injected (left eye) with 100 μl of freshly radiolabeled ^125I-X209 (5 μCi, 2.5 μg) in PBS. Mice were anesthetized with 2% isoflurane and blood were collected at several time points (2, 5, 10, 15, 30 m, 1, 2, 4, 6, 8 h, 1, 2, 3, 7, 14 and 21 days) post injection via submandibular bleeding. For biodistribution studies, blood was collected via cardiac puncture and tissues were harvested at the following time points: 1, 4 h, 1, 3, 7, 14, 21 days post injection. The radioactivity contents were measured using a gamma counter (2480 Wizard2, Perkin Elmer) with decay-corrections (100× dilution of 100 μl dose). The measured radioactivity was normalized to % injected dose/g tissue.

The next data set concerns ERK. Nature of the data set: ERK activation in HSCs (Western blot). In kind it is cell-based, human. As to conditions: HSCs, antibody 2 μg/ml. The method, then: Western blots were carried out on total protein extracts from HSCs and liver tissues. Both cells and frozen tissues were homogenized in radioimmunoprecipitation assay (RIPA) buffer containing protease and phosphatase inhibitors (Thermo Scientifics), followed by centrifugation to clear the lysate. Protein concentrations were determined by Bradford assay (Bio-Rad). Equal amount of protein lysates were separated by SDS-PAGE, transferred to PVDF membrane, and subjected to immunoblot analysis for the indicated primary antibodies. Proteins were visualized using the ECL detection system (Pierce) with the appropriate secondary antibodies.
On the technique in general: In western blotting, separated proteins are transferred to a membrane and probed.

A further data set concerns WDF-fed mice. Nature of the data set: WDF NASH reversal model (Example 4). In kind it is in vivo, mouse. Particulars: WDF 16 weeks, then 10 mg/kg for 8 weeks on continued WDF. The method, then:
FIGS. 21A to 21L. Inhibition of Il-11 signalling reverses NASH pathologies in preclinical models and HSC-to-myofibroblast transformation. (A) Schematic showing therapeutic dosing regime in NASH reversal experiment for data shown in (B-G). Mice were fed with WDF for 16 weeks to induce NASH and then treated with (10 mg/kg) X209 or IgG for 8 weeks while they were on continuous WDF feeding. (B) Total liver hydroxyproline content, the levels of (C) liver triglycerides, (D) serum ALT, (E), fasting blood glucose, (F) serum triglycerides, and (G) serum cholesterol in mice on NC and IgG- and X209-treated WDF (n≥5/group). (H) Schematic showing reversal experiment in which fibrosis was established by feeding mice HFMCD for 10 weeks and then replacing this with NC and initiating antibody (X203 and X209) therapy. Mice were euthanized at the indicated time points. (I) Total liver hydroxyproline content (dotted line represents the mean value of NC=0.93) and (J) relative mRNA expression of Mmp2/Timp1 at 1-, 3-, 6-weeks after concurrent metabolic intervention (diet switch) and X203, X209, or IgG treatment (n≥3/group). Quantification of ACTA2^+ve immunostaining (scale bars, 200 μm) following incubation (K) with TGFβ1 or (L) with PDGF, either prior to or after the addition of X203, X209, or IgG (n=5/group). (K-L) TGFβ1 (5 ng/ml), PDGF (20 ng/ml), IgG, X203 and, X209 (2 μg/ml). (B-G, K-L) Data are shown as box-and-whisker with median (middle line), 25th-75th percentiles (box) and min-max percentiles (whiskers); (I) data are shown as mean±s.d; (J) data are represented as line chart (mean) and transparencies indicate s.d. (B) Two-tailed Student's t-test (C-G,K-L) two-tailed, Tukey-corrected Student's t-test; (I-J) two-way ANOVA. FC: fold change; NC: normal chow; WDF: Western diet+15% (w/v) fructose; HFMCD: high fat methionine- and choline-deficient.
Ten week old male C57Bl/6J mice were fed Western diet (D12079B, Research Diets), supplemented with 15% weight/volume fructose in drinking water to mimic NAFLD/NASH like humans 17,18, whereas control mice received normal chow and tap water. Durations of diet and antibody therapies are described.
Mice were injected intraperitoneally with either antagonist anti-IL-11 antibody, antagonist anti-IL11RA antibody or an identical amount of IgG isotype control for the treatment durations outlined in the figures.
Mice were fasted for 6 h prior to blood collection (via tail snip) and Accu-Chek blood glucose meter was used to take fasting glucose measurements.

For the next data set, the target named is T1, mouse Il11ra1 (Mus musculus, UniProt Q64385).
T1 sequence (Q64385 24-432): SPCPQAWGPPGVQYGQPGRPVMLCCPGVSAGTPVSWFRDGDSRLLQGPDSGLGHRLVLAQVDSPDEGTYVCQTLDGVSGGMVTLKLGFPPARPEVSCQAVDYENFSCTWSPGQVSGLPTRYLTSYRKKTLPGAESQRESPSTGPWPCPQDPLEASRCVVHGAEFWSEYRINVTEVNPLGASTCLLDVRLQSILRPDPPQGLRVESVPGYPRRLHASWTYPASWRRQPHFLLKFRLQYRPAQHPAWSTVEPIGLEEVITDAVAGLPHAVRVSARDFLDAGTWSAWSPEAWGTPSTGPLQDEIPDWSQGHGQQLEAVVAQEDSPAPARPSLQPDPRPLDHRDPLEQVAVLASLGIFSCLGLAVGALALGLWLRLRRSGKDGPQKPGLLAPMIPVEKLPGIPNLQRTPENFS
The data set is described as follows: Binding of X209 to mouse Il11ra1 (Octet). Particulars: Octet system. The method, then: Binding of X209 to human IL11RA was measured on Biacore T200 (GE Healthcare). X209 was immobilized onto an anti-mouse capture chip. Interaction assays were performed with HEPES-buffered saline pH 7.4 containing 0.005% P20 and 0.5% BSA. A concentration range (1.56 nM to 100 nM) of the analyte (human IL11 RA) was injected over X209 and reference surfaces at a flow rate of 40 μl min^−1. Binding to mouse Il11ra1 was confirmed on Octet system (ForteBio) using a similar strategy. All sensograms were aligned and double-referenced^4. Affinity and kinetic constants were determined by fitting the corrected sensorgrams with 1:1 Langmuir model. The equilibrium binding constant KD was determined by the ratio of kd/ka.
Background: In BLI a coated tip is dipped into the sample, and binding shifts an interference pattern.

B1: X209: mouse anti-mouse IL-11Rα IgG (IgG1κ), neutralising; VH SEQ ID NO:24, VL SEQ ID NO:25 (antibody, V domains shown)
VH: QVQLQQPGAELVRPGSSVKLSCKASGYTFTNYWMHWLKQRPVQGLEWIGNIGPSDSKTHYNQKFKDKATLTVDKSSSTAYMQLNSLTSEDSAVYYCARGDYVLFTYWGQGTLVTVSA
VL: DIVLTQSPATLSLSPGERATLSCRASQSISNNLHWYQQKSHEAPRLLIKYASQSISGIPARFSGSGSGTDFTLSFSSLETEDFAVYFCQQSYSWPLTFGQGTKLEIK
modifications: Enx209 VH; Enx209 VL
B1: the liver uptake entry in data set [1] (125I-X209, mice) is “good liver uptake”. Also, the in vivo half-life entry in data set [1] (125I-X209, retro-orbital injection, mice) is listed as “approximately 18 days”. Also, the “ERK phosphorylation downstream of all factors, including IL-11” value in the data set on ERK was “abolished”. In the data set with WDF-fed mice, the “hepatic Erk activation” value was “inhibited”, the liver fibrosis result is “reversal”, the liver inflammation result is “reversal” and the liver steatosis entry is on record as “reversal”. Moreover, in the data set on WDF-fed mice, the “serum ALT levels” value is recorded as “reduction”, the serum cholesterol levels entry is reported as “reduction”, the serum glucose result is on record as “reduction” and the serum triglycerides entry is given as “reduction”. The “Binding to mouse Il11ra1” value in the data set with mouse Il11ra1 is “confirmed”.
